Paper doi:10.1101/2021.08.04.455045 (bioRxiv, 2021)

Molecular target: T1, hUHRF1 tandem tudor domain, 10xHIS-TEV-TTD (aa 126-285) (human, UniProt Q96T88-1 126-285)
T1 sequence (looked up): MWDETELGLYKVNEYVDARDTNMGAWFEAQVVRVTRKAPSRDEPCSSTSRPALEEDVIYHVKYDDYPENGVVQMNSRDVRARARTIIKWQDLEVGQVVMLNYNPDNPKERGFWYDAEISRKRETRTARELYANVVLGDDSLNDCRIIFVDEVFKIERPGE
Assay: MST

binding result: binds
B1: hUHRF1 Linker 4 (aa 605-675)-6xHIS (domain or fragment, human, UniProt Q96T88-1 605-675, looked up)
chain: MQYPEGYLEALANREREKENSKREEEEQQEGGFASPRTGKGKWKRKSAGGGPSRAGSPRRTSKKTKVEPYS
